Measurements: the supplement of paper PMC7125110
± gives the standard error. Fewer inactive variants are shown than the library holds.

B1: glmS ribozyme (parent)
chain: AUAAAAGCGCCAGAACUACAGAAAUGUAGUUGACGAGGAGGAGGUUUAUCGAAUUUUCGGCGGAUGCCUCCAAA

Variants of: B1
Experiment: self-cleavage kobs at 640 uM GlcN6P; higher = faster cleavage; RNA array
Settings: with glucosamine-6-phosphate
In short: (§1)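 Using a hybridised Cy3 probe at 37 °C, barcoded ribozyme variants transcribed in situ by E. coli RNA polymerase on sequenced MiSeq chips were monitored across tiles imaged over ~14 h. The flow contained glucosamine-6-phosphate from 40 μM to 10 mM in HEPES/KCl/Mg(OAc)2 buffer. Signals were normalised to baseline and to non-cleaving reference variants before per-tile medians were fit to one- or two-exponential decays to yield kobs. Weighted Michaelis–Menten fits across concentrations gave kcat and KM.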

| Variant | self-cleavage kobs at 640 uM GlcN6P [s⁻¹] |
| --- | --- |
| G37A A53G A64G | 0.000552 ± 9.7e-05 |
| A52C A53G A64U | < 1e-05 |
| G7A G9C A33U G66C | < 1e-05 |
| G29A G44U U65C | < 1e-05 |
| G32A A36G A39C G41U G43U | < 1e-05 |
| C34G G37C | < 1e-05 |
| U30C G63U C70G | 3.84e-05 ± 1.8e-05 |
| C11A A33G G63A G66U | < 1e-05 |
| C16A U31C A33G C34A A52U C68U | < 1e-05 |
| A6U G13A C71A | < 1e-05 |
| A36U A48U G60U C68A | < 1e-05 |
| C11A G35A G63U A64C | < 1e-05 |
| G29U U56C C61G | < 1e-05 |
| A14C C16A G43U C68U | < 1e-05 |
| G13A C68G C71G | 0.000118 ± 5e-05 |
| U30A U55G C61U | < 1e-05 |
| G26U U31C U47A A64G | 0.000213 ± 6.9e-05 |
| G13A A53G G66A | 6.41e-05 ± 2.2e-05 |
| G29A G40C | 5.68e-05 ± 1.5e-05 |
| U31A A36U A48U U69C | < 1e-05 |
| G7C U31C G40C | < 1e-05 |
| A52G U55G G63U | < 1e-05 |
| A15U A33G A64G C67A C70A C71U | 9.67e-05 ± 3.1e-05 |
| A39C C58G C67G C71G | < 1e-05 |
| A36C C70G | 0.000124 ± 2.1e-05 |

| Variant | self-cleavage kobs at 640 uM GlcN6P [s⁻¹] |
| --- | --- |
| U45G C50U C70U | < 1e-05 |
| G35A U46G C61G | < 1e-05 |
| A6G U31C G59A | < 1e-05 |
| A14U A15U G29C C67U C70G | 0.00266 ± 0.001 |
| G9U G40A C61G | < 1e-05 |
| A6U C8U A15U G32C C34A C61G | < 1e-05 |
| A12C U49A A52C | < 1e-05 |
| G9A G44C C68U U69A | < 1e-05 |
| A52G C58A G63C C68G | 0.00011 ± 4.4e-05 |
| C11U A15C U31C | 6.01e-05 ± 2.1e-05 |
| C10G A15G A39U G60C C68A | < 1e-05 |
| A6G A42C A52U C68A | < 1e-05 |
| G7A C11G A15C C50A U54C | < 1e-05 |
| A33U U54A G60C | < 1e-05 |
| U45C A48U G60A | < 1e-05 |
| A12C U56G G66U | 0.000122 ± 2e-05 |
| C8A C11U G13A C71U | < 1e-05 |
| G9U G60A G66U | < 1e-05 |
| C10U A52U C67A C68A U69G | 8.14e-05 ± 3.2e-05 |
| A15U C34G G63A | < 1e-05 |
| A15G U47G U55G C70A | 0.000102 ± 1.7e-05 |
| G37A G41C C50U U65G | < 1e-05 |
| C10U G29A C61A G62A C70U | 7.67e-05 ± 3.8e-05 |
| U49C U55A | < 1e-05 |
| U30C G32U G44A A48C U57A | < 1e-05 |

Variants of: B1
Experiment: self-cleavage kobs at 2500 uM GlcN6P; higher = faster cleavage; RNA array
Settings: with glucosamine-6-phosphate
In short: as §1

| Variant | self-cleavage kobs at 2500 uM GlcN6P [s⁻¹] |
| --- | --- |
| G37A A53G A64G | 0.00103 ± 0.0003 |
| C10A G40A U47C A48G C70U | < 1e-05 |
| A52C A53G A64U | < 1e-05 |
| G9A C50G U55A C67G | 4.95e-05 ± 1.9e-05 |
| G7A G9C A33U G66C | < 1e-05 |
| G29A G44U U65C | < 1e-05 |
| G7U G9U U56A G59U | < 1e-05 |
| A39G U47G C68G | 5.94e-05 ± 2.4e-05 |
| A6G C10U U31A G60U C67U | < 1e-05 |
| A6G G29A G60A | < 1e-05 |
| A14U U30G G41U | 0.000233 ± 7.4e-05 |
| A36U A48U G60U C68A | < 1e-05 |
| C16U C34G A53C | < 1e-05 |
| C11A G35A G63U A64C | < 1e-05 |
| A14C C16A G43U C68U | < 1e-05 |
| A12G C68A C71A | < 1e-05 |
| C19A U30C | 7.18e-05 ± 2.3e-05 |
| C10A A42G U55G C67U | < 1e-05 |
| G7U C10G G43U | < 1e-05 |
| G13A C68G C71G | 0.000141 ± 3.4e-05 |
| G29A G40C | 0.000243 ± 4.7e-05 |
| G7C U31C G40C | < 1e-05 |

| Variant | self-cleavage kobs at 2500 uM GlcN6P [s⁻¹] |
| --- | --- |
| A52G U55G G63U | 0.000758 ± 0.0003 |
| C11A G51U U55A G62A | < 1e-05 |
| A6U C16G C71G | 0.000356 ± 0.00014 |
| G35A U46G C61G | < 1e-05 |
| A14C C34G A39C | < 1e-05 |
| C16U G32C A36G C58G G59C C61A | < 1e-05 |
| A12G A14U G66A | 6.8e-05 ± 1.9e-05 |
| A52G C58A G63C C68G | 0.000102 ± 2.9e-05 |
| C11U A15C U31C | 0.000159 ± 5e-05 |
| C10G A15G A39U G60C C68A | < 1e-05 |
| A6G A42C A52U C68A | < 1e-05 |
| G7A C11G A15C C50A U54C | < 1e-05 |
| A33U U54A G60C | < 1e-05 |
| C8A G59A C70U | < 1e-05 |
| U45C A48U G60A | < 1e-05 |
| A12C U56G G66U | 0.000363 ± 8e-05 |
| C8A C11U G13A C71U | < 1e-05 |
| A15G G32A C68U | 0.000247 ± 8.7e-05 |
| G37A G41C C50U U65G | < 1e-05 |
| U49C U55A | < 1e-05 |
| G9U G38C G40U G43C | < 1e-05 |
| U30C G32U G44A A48C U57A | < 1e-05 |

Variants of: B1
Experiment: self-cleavage kobs at 10000 uM GlcN6P; higher = faster cleavage; RNA array
Settings: with glucosamine-6-phosphate
In short: as §1

| Variant | self-cleavage kobs at 10000 uM GlcN6P [s⁻¹] |
| --- | --- |
| G37A A53G A64G | 0.00293 ± 0.0007 |
| C34G G37C | < 1e-05 |
| C19A U30C | 6.71e-05 ± 2.2e-05 |
| C10A A42G U55G C67U | < 1e-05 |
| U30A U55G C61U | < 1e-05 |
| G35A U46G C61G | < 1e-05 |
